The target in one assay is T1, GST-14-3-3γ:γ homodimer (UniProt P61981).
T1 sequence: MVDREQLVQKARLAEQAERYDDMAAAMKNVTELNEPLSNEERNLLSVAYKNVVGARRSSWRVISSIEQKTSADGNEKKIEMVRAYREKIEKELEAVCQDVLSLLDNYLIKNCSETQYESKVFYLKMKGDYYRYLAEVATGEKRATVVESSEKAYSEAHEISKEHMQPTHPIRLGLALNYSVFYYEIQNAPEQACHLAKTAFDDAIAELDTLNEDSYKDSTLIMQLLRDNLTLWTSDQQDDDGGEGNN

The next assay addresses 14-3-3ε:ζ heterodimer (UniProt P62258).
Sequence of UniProt P62258 (P62258 whole entry, chain 1 of 2): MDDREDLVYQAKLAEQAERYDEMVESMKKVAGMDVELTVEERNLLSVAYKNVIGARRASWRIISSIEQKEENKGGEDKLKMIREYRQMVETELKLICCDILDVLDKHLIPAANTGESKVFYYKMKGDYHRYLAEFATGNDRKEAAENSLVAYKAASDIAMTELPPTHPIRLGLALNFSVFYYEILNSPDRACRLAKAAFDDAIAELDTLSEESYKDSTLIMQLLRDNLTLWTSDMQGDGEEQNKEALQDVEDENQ
Sequence of UniProt P62258 (P62258 other isoform, or with tags, fused parts or gaps, chain 2 of 2): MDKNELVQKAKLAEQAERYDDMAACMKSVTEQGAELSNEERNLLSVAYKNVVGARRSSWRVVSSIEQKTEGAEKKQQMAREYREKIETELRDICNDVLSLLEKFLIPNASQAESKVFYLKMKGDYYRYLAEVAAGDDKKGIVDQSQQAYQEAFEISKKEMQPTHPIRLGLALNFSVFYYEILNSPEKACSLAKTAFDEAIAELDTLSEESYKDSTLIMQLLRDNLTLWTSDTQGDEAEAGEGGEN

On to “bovine tyrosine hydroxylase phosphorylated by PRAK on Ser19 (from UniProt P17289 1-491) (enzyme)”, for which the relative activation of bTH-pS19 activity (maximal, 12.5–100 µg/ml thrombin-cleaved 14-3-3, BH4 as cofactor); highest activation with GST-14-3-3γ:γ homodimer amounted to 4.4 fold. In addition, the relative activation of bTH-pS19 activity (maximal, 12.5–100 µg/ml thrombin-cleaved 14-3-3, BH4 as cofactor); lowest activation with 14-3-3ε:ζ heterodimer worked out at 3.3 fold.

These data come from paper PMC4833811.
